Values of other authors in article doi:10.1101/2021.01.30.427993.

Tested on: Glu165
Settings: not stated ('in the active site')

Triosephosphate isomerase (TIM)
pKa: 3.9
